Source: patent US20210238260

Target: Factor X (FX), P00742
Sequence (P00742 whole entry, looked up): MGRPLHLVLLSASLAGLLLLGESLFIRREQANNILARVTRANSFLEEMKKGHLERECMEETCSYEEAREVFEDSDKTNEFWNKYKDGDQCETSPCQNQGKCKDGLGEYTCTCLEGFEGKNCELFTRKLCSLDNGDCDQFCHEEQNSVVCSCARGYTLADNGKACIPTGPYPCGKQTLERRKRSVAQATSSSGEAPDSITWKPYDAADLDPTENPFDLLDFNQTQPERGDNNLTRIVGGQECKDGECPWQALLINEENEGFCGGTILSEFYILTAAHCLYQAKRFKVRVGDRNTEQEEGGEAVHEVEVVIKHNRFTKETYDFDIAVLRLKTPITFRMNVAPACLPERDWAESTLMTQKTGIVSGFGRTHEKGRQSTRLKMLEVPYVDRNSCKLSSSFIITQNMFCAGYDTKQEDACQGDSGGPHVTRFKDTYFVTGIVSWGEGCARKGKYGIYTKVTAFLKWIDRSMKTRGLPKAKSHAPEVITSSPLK

Protein	% of WT kcat/KM [%]	kcat/KM [M⁻¹ s⁻¹]
FIXa variant Y155F/R338E/R403E/E410N (protein) chain 1: YNSGKLEEFVQGNLERECMEEKCSFEEAREVFENTERTTEFWKQYVDGDQCESNPCLNGGSCKDDINSYECWCPFGFEGKNCELDVTCNIKNGRCEQFCKNSADNKVVCSCTEGYRLAENQKSCEPAVPFPCGRVSVSQTSKLTR chain 2: VVGGEDAKPGQFPWQVVLNGKVDAFCGGSIVNEKWIVTAAHCVETGVKITVVAGEHNIEETEHTEQKRNVIRIIPHHNYNAAINKYNHDIALLELDEPLVLNSYVTPICIADKEYTNIFLKFGSGYVSGWGRVFHKGRSALVLQYLRVPLVDRATCLESTKFTIYNNMFCAGFHEGGRDSCQGDSGGPHVTEVEGTSFLTGIISWGEECAMKGKYGIYTKVSEYVNWIKNKTKLT	401	1.8e+08
FIXa variant R318Y/R338E/R403E (protein) chain 1: YNSGKLEEFVQGNLERECMEEKCSFEEAREVFENTERTTEFWKQYVDGDQCESNPCLNGGSCKDDINSYECWCPFGFEGKNCELDVTCNIKNGRCEQFCKNSADNKVVCSCTEGYRLAENQKSCEPAVPFPCGRVSVSQTSKLTR chain 2: VVGGEDAKPGQFPWQVVLNGKVDAFCGGSIVNEKWIVTAAHCVETGVKITVVAGEHNIEETEHTEQKRNVIRIIPHHNYNAAINKYNHDIALLELDEPLVLNSYVTPICIADKEYTNIFLKFGSGYVSGWGRVFHKGYSALVLQYLRVPLVDRATCLESTKFTIYNNMFCAGFHEGGRDSCQGDSGGPHVTEVEGTSFLTGIISWGEECAMKGKYGIYTKVSEYVNWIKEKTKLT	134	6.2e+07
FIXa variant Y155F/R318Y/R338E/R403E (protein) chain 1: YNSGKLEEFVQGNLERECMEEKCSFEEAREVFENTERTTEFWKQYVDGDQCESNPCLNGGSCKDDINSYECWCPFGFEGKNCELDVTCNIKNGRCEQFCKNSADNKVVCSCTEGYRLAENQKSCEPAVPFPCGRVSVSQTSKLTR chain 2: VVGGEDAKPGQFPWQVVLNGKVDAFCGGSIVNEKWIVTAAHCVETGVKITVVAGEHNIEETEHTEQKRNVIRIIPHHNYNAAINKYNHDIALLELDEPLVLNSYVTPICIADKEYTNIFLKFGSGYVSGWGRVFHKGYSALVLQYLRVPLVDRATCLESTKFTIYNNMFCAGFHEGGRDSCQGDSGGPHVTEVEGTSFLTGIISWGEECAMKGKYGIYTKVSEYVNWIKEKTKLT	189	8.7e+07
FIXa variant D203N/F205T/K228N (protein) chain 1: YNSGKLEEFVQGNLERECMEEKCSFEEAREVFENTERTTEFWKQYVDGDQCESNPCLNGGSCKDDINSYECWCPFGFEGKNCELDVTCNIKNGRCEQFCKNSADNKVVCSCTEGYRLAENQKSCEPAVPFPCGRVSVSQTSKLTR chain 2: VVGGEDAKPGQFPWQVVLNGKVNATCGGSIVNEKWIVTAAHCVETGVNITVVAGEHNIEETEHTEQKRNVIRIIPHHNYNAAINKYNHDIALLELDEPLVLNSYVTPICIADKEYTNIFLKFGSGYVSGWGRVFHKGRSALVLQYLRVPLVDRATCLRSTKFTIYNNMFCAGFHEGGRDSCQGDSGGPHVTEVEGTSFLTGIISWGEECAMKGKYGIYTKVSRYVNWIKEKTKLT	30	1.4e+07
FIXa variant D203N/F205T/E410N (protein) chain 1: YNSGKLEEFVQGNLERECMEEKCSFEEAREVFENTERTTEFWKQYVDGDQCESNPCLNGGSCKDDINSYECWCPFGFEGKNCELDVTCNIKNGRCEQFCKNSADNKVVCSCTEGYRLAENQKSCEPAVPFPCGRVSVSQTSKLTR chain 2: VVGGEDAKPGQFPWQVVLNGKVNATCGGSIVNEKWIVTAAHCVETGVKITVVAGEHNIEETEHTEQKRNVIRIIPHHNYNAAINKYNHDIALLELDEPLVLNSYVTPICIADKEYTNIFLKFGSGYVSGWGRVFHKGRSALVLQYLRVPLVDRATCLRSTKFTIYNNMFCAGFHEGGRDSCQGDSGGPHVTEVEGTSFLTGIISWGEECAMKGKYGIYTKVSRYVNWIKNKTKLT	91	4.2e+07
FIXa variant D203N/F205T/R338E (protein) chain 1: YNSGKLEEFVQGNLERECMEEKCSFEEAREVFENTERTTEFWKQYVDGDQCESNPCLNGGSCKDDINSYECWCPFGFEGKNCELDVTCNIKNGRCEQFCKNSADNKVVCSCTEGYRLAENQKSCEPAVPFPCGRVSVSQTSKLTR chain 2: VVGGEDAKPGQFPWQVVLNGKVNATCGGSIVNEKWIVTAAHCVETGVKITVVAGEHNIEETEHTEQKRNVIRIIPHHNYNAAINKYNHDIALLELDEPLVLNSYVTPICIADKEYTNIFLKFGSGYVSGWGRVFHKGRSALVLQYLRVPLVDRATCLESTKFTIYNNMFCAGFHEGGRDSCQGDSGGPHVTEVEGTSFLTGIISWGEECAMKGKYGIYTKVSRYVNWIKEKTKLT	228	1e+08
FIXa variant D203N/F205T/R338A (protein) chain 1: YNSGKLEEFVQGNLERECMEEKCSFEEAREVFENTERTTEFWKQYVDGDQCESNPCLNGGSCKDDINSYECWCPFGFEGKNCELDVTCNIKNGRCEQFCKNSADNKVVCSCTEGYRLAENQKSCEPAVPFPCGRVSVSQTSKLTR chain 2: VVGGEDAKPGQFPWQVVLNGKVNATCGGSIVNEKWIVTAAHCVETGVKITVVAGEHNIEETEHTEQKRNVIRIIPHHNYNAAINKYNHDIALLELDEPLVLNSYVTPICIADKEYTNIFLKFGSGYVSGWGRVFHKGRSALVLQYLRVPLVDRATCLASTKFTIYNNMFCAGFHEGGRDSCQGDSGGPHVTEVEGTSFLTGIISWGEECAMKGKYGIYTKVSRYVNWIKEKTKLT	135	6.2e+07
FIXa variant D203N/F205T/R318Y (protein) chain 1: YNSGKLEEFVQGNLERECMEEKCSFEEAREVFENTERTTEFWKQYVDGDQCESNPCLNGGSCKDDINSYECWCPFGFEGKNCELDVTCNIKNGRCEQFCKNSADNKVVCSCTEGYRLAENQKSCEPAVPFPCGRVSVSQTSKLTR chain 2: VVGGEDAKPGQFPWQVVLNGKVNATCGGSIVNEKWIVTAAHCVETGVKITVVAGEHNIEETEHTEQKRNVIRIIPHHNYNAAINKYNHDIALLELDEPLVLNSYVTPICIADKEYTNIFLKFGSGYVSGWGRVFHKGYSALVLQYLRVPLVDRATCLRSTKFTIYNNMFCAGFHEGGRDSCQGDSGGPHVTEVEGTSFLTGIISWGEECAMKGKYGIYTKVSRYVNWIKEKTKLT	44	2e+07
FIXa variant D203N/F205T/R338E/R403E (protein) chain 1: YNSGKLEEFVQGNLERECMEEKCSFEEAREVFENTERTTEFWKQYVDGDQCESNPCLNGGSCKDDINSYECWCPFGFEGKNCELDVTCNIKNGRCEQFCKNSADNKVVCSCTEGYRLAENQKSCEPAVPFPCGRVSVSQTSKLTR chain 2: VVGGEDAKPGQFPWQVVLNGKVNATCGGSIVNEKWIVTAAHCVETGVKITVVAGEHNIEETEHTEQKRNVIRIIPHHNYNAAINKYNHDIALLELDEPLVLNSYVTPICIADKEYTNIFLKFGSGYVSGWGRVFHKGRSALVLQYLRVPLVDRATCLESTKFTIYNNMFCAGFHEGGRDSCQGDSGGPHVTEVEGTSFLTGIISWGEECAMKGKYGIYTKVSEYVNWIKEKTKLT	41	1.9e+07
FIXa variant K228N/R338E/R403E (protein) chain 1: YNSGKLEEFVQGNLERECMEEKCSFEEAREVFENTERTTEFWKQYVDGDQCESNPCLNGGSCKDDINSYECWCPFGFEGKNCELDVTCNIKNGRCEQFCKNSADNKVVCSCTEGYRLAENQKSCEPAVPFPCGRVSVSQTSKLTR chain 2: VVGGEDAKPGQFPWQVVLNGKVDAFCGGSIVNEKWIVTAAHCVETGVNITVVAGEHNIEETEHTEQKRNVIRIIPHHNYNAAINKYNHDIALLELDEPLVLNSYVTPICIADKEYTNIFLKFGSGYVSGWGRVFHKGRSALVLQYLRVPLVDRATCLESTKFTIYNNMFCAGFHEGGRDSCQGDSGGPHVTEVEGTSFLTGIISWGEECAMKGKYGIYTKVSEYVNWIKEKTKLT	105	4.8e+07
FIXa variant R318Y/R338E/E410N (protein) chain 1: YNSGKLEEFVQGNLERECMEEKCSFEEAREVFENTERTTEFWKQYVDGDQCESNPCLNGGSCKDDINSYECWCPFGFEGKNCELDVTCNIKNGRCEQFCKNSADNKVVCSCTEGYRLAENQKSCEPAVPFPCGRVSVSQTSKLTR chain 2: VVGGEDAKPGQFPWQVVLNGKVDAFCGGSIVNEKWIVTAAHCVETGVKITVVAGEHNIEETEHTEQKRNVIRIIPHHNYNAAINKYNHDIALLELDEPLVLNSYVTPICIADKEYTNIFLKFGSGYVSGWGRVFHKGYSALVLQYLRVPLVDRATCLESTKFTIYNNMFCAGFHEGGRDSCQGDSGGPHVTEVEGTSFLTGIISWGEECAMKGKYGIYTKVSRYVNWIKNKTKLT	727	3.4e+08
FIXa variant D104N/K106S/R318Y/R338E/E410N (protein) chain 1: YNSGKLEEFVQGNLERECMEEKCSFEEAREVFENTERTTEFWKQYVDGDQCESNPCLNGGSCKDDINSYECWCPFGFEGKNCELDVTCNIKNGRCEQFCKNSANNSVVCSCTEGYRLAENQKSCEPAVPFPCGRVSVSQTSKLTR chain 2: VVGGEDAKPGQFPWQVVLNGKVDAFCGGSIVNEKWIVTAAHCVETGVKITVVAGEHNIEETEHTEQKRNVIRIIPHHNYNAAINKYNHDIALLELDEPLVLNSYVTPICIADKEYTNIFLKFGSGYVSGWGRVFHKGYSALVLQYLRVPLVDRATCLESTKFTIYNNMFCAGFHEGGRDSCQGDSGGPHVTEVEGTSFLTGIISWGEECAMKGKYGIYTKVSRYVNWIKNKTKLT	564	2.6e+08
FIXa variant Y155F/R318Y/R338E/E410N (protein) chain 1: YNSGKLEEFVQGNLERECMEEKCSFEEAREVFENTERTTEFWKQYVDGDQCESNPCLNGGSCKDDINSYECWCPFGFEGKNCELDVTCNIKNGRCEQFCKNSADNKVVCSCTEGYRLAENQKSCEPAVPFPCGRVSVSQTSKLTR chain 2: VVGGEDAKPGQFPWQVVLNGKVDAFCGGSIVNEKWIVTAAHCVETGVKITVVAGEHNIEETEHTEQKRNVIRIIPHHNYNAAINKYNHDIALLELDEPLVLNSYVTPICIADKEYTNIFLKFGSGYVSGWGRVFHKGYSALVLQYLRVPLVDRATCLESTKFTIYNNMFCAGFHEGGRDSCQGDSGGPHVTEVEGTSFLTGIISWGEECAMKGKYGIYTKVSRYVNWIKNKTKLT	810	3.7e+08
FIXa variant K228N/R318Y/E410N (protein) chain 1: YNSGKLEEFVQGNLERECMEEKCSFEEAREVFENTERTTEFWKQYVDGDQCESNPCLNGGSCKDDINSYECWCPFGFEGKNCELDVTCNIKNGRCEQFCKNSADNKVVCSCTEGYRLAENQKSCEPAVPFPCGRVSVSQTSKLTR chain 2: VVGGEDAKPGQFPWQVVLNGKVDAFCGGSIVNEKWIVTAAHCVETGVNITVVAGEHNIEETEHTEQKRNVIRIIPHHNYNAAINKYNHDIALLELDEPLVLNSYVTPICIADKEYTNIFLKFGSGYVSGWGRVFHKGYSALVLQYLRVPLVDRATCLRSTKFTIYNNMFCAGFHEGGRDSCQGDSGGPHVTEVEGTSFLTGIISWGEECAMKGKYGIYTKVSRYVNWIKNKTKLT	264	1.2e+08
